Assay [1] has as its target αIIbβ3 integrin on human platelets (human) (UniProt P08514). Briefly: cell-based or functional assay.
Assay [2] has as its target T1, α5β1 integrin naturally expressed on wild-type K562 cells (UniProt P08648 42-1049; P05556 21-798).
T1 construct: whole, on cells
Briefly: flow cytometry, direct binding to wild-type K562 cells.

The target in assay [3] is T2, αIIbβ3 integrin expressed on K562-αIIbβ3 cells (UniProt P08514 32-1039; P05106 27-788).
T2 construct: whole, on cells; also called cell surface expressed αIIbβ3 integrin; GPIIb-IIIa
Briefly: flow cytometry, peptide titrated on K562-αIIbβ3 cells, anti-His detection. For orientation: A flow cytometer gives signals particle by particle.

The target of assay [4] is αIIbβ3 integrin on human platelets (human, UniProt P08514 32-1039; P05106 27-788). Briefly: cell-based or functional assay.
Assay [5] addresses T3, αvβ3 integrin expressed on K562-αvβ3 cells (UniProt P06756 31-1048; P05106 27-788).
T3 construct: whole, on cells
Briefly: flow cytometry, direct binding to K562-αvβ3 cells, anti-His detection.

Assay [6] deals with T4, αvβ5 integrin expressed on K562-αvβ5 cells (UniProt P06756 31-1048; P18084 24-799).
T4 construct: whole, on cells
Briefly: flow cytometry, direct binding to K562-αvβ5 cells.

Assay [7] concerns the target T3, αvβ3 integrin expressed on K562-αvβ3 …. Briefly: flow cytometry, peptide titrated on K562-αvβ3 cells, anti-His detection.
Assay [8] shares this target. Briefly: flow cytometry, peptide titrated on K562-αvβ3 cells.

Ends that are not written are not given here.

The term Kd denotes the constant that tells how readily two partners part at equilibrium. Read a low Kd as tighter binding.

T1 sequence (P08648 42-1049, chain 1 of 2): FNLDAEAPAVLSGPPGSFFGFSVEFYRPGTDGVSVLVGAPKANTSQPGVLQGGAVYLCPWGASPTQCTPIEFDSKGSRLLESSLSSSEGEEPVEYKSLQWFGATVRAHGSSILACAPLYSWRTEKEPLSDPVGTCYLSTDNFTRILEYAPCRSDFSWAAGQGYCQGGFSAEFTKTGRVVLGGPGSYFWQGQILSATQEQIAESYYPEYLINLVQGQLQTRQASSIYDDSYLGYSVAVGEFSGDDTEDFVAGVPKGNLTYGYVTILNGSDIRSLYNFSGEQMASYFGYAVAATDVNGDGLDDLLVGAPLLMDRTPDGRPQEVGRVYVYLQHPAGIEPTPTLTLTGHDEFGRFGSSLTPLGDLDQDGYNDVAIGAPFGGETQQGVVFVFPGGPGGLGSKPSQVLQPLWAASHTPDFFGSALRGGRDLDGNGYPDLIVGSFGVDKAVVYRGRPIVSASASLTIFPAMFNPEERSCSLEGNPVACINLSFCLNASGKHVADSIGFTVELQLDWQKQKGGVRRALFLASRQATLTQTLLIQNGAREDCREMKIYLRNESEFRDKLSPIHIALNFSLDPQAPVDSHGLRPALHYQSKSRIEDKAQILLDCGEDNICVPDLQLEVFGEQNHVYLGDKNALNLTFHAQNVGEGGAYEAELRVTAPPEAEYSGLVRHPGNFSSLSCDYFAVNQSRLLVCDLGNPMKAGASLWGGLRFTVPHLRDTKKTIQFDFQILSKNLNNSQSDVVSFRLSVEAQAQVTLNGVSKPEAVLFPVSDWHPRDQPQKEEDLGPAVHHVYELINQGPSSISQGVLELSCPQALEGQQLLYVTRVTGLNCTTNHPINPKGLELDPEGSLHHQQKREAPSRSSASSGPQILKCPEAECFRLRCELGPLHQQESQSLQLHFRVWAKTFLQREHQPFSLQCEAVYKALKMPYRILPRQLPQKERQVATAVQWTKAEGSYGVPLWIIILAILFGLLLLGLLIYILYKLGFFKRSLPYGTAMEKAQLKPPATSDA
T1 sequence (P05556 21-798, chain 2 of 2): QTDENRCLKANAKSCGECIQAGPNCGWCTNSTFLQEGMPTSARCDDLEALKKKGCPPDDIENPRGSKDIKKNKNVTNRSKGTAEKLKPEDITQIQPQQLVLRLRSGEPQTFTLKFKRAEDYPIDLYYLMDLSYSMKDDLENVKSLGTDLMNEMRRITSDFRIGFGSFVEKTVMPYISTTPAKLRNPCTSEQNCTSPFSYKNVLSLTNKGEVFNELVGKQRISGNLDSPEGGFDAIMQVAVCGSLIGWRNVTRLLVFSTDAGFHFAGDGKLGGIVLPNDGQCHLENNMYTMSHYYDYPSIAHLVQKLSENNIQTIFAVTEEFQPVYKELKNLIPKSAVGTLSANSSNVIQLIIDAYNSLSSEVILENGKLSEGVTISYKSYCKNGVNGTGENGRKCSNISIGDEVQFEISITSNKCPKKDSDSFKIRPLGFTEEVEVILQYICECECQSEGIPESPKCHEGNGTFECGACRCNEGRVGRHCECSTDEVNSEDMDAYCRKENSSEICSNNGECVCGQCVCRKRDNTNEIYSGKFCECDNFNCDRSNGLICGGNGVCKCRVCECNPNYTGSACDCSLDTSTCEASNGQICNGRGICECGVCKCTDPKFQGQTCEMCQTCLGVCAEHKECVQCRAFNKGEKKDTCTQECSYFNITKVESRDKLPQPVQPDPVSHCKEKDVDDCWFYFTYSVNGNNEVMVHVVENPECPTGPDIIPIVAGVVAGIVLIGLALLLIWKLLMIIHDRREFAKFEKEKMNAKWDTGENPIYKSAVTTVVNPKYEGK
T3 sequence (P06756 31-1048, chain 1 of 2): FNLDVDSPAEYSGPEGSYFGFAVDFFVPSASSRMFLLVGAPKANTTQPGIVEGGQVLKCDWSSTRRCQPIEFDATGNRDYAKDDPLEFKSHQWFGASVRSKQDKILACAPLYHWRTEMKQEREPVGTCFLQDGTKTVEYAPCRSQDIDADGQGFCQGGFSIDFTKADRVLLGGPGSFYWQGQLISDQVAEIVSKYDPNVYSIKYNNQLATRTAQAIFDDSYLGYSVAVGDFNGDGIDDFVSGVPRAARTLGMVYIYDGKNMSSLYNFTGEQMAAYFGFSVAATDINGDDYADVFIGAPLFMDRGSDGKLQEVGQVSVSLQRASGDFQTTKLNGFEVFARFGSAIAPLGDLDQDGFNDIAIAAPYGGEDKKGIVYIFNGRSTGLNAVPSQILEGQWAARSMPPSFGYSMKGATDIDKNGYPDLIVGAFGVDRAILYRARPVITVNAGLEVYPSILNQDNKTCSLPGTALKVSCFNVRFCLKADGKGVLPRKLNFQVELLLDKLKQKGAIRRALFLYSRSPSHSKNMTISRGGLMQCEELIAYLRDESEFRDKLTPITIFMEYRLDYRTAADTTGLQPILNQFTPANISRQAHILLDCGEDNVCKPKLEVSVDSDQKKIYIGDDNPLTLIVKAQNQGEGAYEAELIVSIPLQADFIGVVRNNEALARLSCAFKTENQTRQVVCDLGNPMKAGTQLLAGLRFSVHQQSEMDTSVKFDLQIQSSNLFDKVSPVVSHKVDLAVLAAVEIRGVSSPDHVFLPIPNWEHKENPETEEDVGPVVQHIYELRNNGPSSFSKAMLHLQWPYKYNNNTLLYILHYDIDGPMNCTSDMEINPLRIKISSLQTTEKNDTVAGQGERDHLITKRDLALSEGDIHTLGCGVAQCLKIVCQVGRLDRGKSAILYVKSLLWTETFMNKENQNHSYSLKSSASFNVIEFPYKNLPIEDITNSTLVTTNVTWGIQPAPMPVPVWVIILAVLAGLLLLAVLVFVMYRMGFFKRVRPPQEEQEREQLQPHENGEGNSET
T3 sequence (P05106 27-788, chain 2 of 2): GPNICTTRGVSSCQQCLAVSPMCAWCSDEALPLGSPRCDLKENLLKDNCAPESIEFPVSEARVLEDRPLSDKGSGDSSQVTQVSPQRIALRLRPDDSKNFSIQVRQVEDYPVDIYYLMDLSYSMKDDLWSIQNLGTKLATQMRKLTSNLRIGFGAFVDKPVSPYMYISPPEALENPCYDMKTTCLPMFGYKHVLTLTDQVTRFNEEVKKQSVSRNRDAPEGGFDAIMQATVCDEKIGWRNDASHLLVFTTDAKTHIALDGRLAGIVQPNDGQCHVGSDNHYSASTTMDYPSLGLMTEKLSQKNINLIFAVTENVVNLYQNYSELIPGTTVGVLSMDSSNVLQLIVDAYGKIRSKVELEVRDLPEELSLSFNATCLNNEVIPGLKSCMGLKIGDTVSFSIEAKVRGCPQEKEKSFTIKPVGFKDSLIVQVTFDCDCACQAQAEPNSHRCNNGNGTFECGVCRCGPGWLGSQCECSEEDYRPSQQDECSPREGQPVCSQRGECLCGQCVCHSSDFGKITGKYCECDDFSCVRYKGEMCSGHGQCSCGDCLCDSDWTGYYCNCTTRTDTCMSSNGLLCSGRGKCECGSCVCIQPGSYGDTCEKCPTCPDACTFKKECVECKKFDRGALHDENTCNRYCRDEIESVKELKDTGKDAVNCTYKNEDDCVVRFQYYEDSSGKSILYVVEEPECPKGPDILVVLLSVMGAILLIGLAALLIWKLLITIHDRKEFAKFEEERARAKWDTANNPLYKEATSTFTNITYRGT
T4 sequence (P06756 31-1048, chain 1 of 2): as the sequence (P06756 31-1048, chain 1 of 2) above
T4 sequence (P18084 24-799, chain 2 of 2): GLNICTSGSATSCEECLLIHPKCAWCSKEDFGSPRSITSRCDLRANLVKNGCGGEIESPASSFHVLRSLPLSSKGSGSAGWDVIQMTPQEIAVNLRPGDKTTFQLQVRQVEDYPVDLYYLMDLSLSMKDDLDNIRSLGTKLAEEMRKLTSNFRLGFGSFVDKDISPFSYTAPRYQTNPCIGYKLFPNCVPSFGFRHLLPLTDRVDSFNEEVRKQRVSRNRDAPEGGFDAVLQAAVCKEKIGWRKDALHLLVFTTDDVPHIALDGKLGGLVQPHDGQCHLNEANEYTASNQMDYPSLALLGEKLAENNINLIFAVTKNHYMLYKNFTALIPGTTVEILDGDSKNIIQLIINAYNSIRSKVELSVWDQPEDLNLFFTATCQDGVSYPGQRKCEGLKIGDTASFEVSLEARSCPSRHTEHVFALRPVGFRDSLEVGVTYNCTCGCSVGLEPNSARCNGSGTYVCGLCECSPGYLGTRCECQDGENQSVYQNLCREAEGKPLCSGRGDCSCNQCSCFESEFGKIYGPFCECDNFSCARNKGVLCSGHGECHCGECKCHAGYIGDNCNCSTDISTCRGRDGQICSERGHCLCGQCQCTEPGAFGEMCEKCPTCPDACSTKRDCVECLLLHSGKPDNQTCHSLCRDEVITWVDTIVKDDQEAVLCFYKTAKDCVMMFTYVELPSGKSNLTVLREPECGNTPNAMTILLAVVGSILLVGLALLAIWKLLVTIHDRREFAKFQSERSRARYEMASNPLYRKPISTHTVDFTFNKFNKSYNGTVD

Consider eptifibatide (peptide), for which, in assay [1], the aggregation (IC50; nM), human platelets was 94 nM and the inhibition of ADP-induced platelet aggregation, IC50 came to 80 nM.

B1: engineered AgRP peptide 2bA (soluble, N-terminal FLAG tag and C-terminal hexahistidine tag) (peptide)
chain: DYKDDDDKGCVRLHESCLGQQVPCCDPAATCYCLKRGDWKGKCYCRHHHHHH
modifications: ends and bridges not checked; cysteine pairing not given here
notes: also called clone 2bA; αIIbβ3-specific peptide 2bA
Turning to B1, the binding result in assay [2], in assay [5] and in assay [6] was “no binding (tested: 1 µM)” throughout. For the same molecule, in assay [3], the affinity, expressed as Kd, was 87 nM. For the same molecule, the “aggregation (IC50; nM), human platelets” value in assay [4] came to 72 nM.

B2: engineered AgRP peptide b3I (soluble, N-terminal FLAG tag and C-terminal hexahistidine tag) (peptide)
chain: DYKDDDDKGCVRLHESCLGQQVPCCDPAATCYCRGRGDVKLRCYCRHHHHHH
modifications: ends and bridges not checked; cysteine pairing not given here
notes: also called clone b3I; β3-specific peptide b3I
For B2, the binding result in assay [2] and in assay [6] was “no binding (tested: 1 µM)” in each case. Besides, the figures for the Kd in assay [3], in assay [7] and in assay [8] were 70 nM, 28 nM and around 25 nM, respectively. For the same molecule, the “aggregation (IC50; nM), human platelets” value in assay [4] is 66 nM.

B3: engineered AgRP peptide 2bO (soluble, N-terminal FLAG tag and C-terminal hexahistidine tag) (peptide)
chain: DYKDDDDKGCVRLHESCLGQQVPCCDPAATCYCKKRGDWKERCYCRHHHHHH
modifications: ends and bridges not checked; cysteine pairing not given here
notes: also called clone 2bO; αIIbβ3-specific peptide 2bO
With B3, the binding result in assay [2], in assay [5] and in assay [6] was “no binding (tested: 1 µM)” each time. The Kd in assay [3] stood at 87 nM. For the same molecule, the “aggregation (IC50; nM), human platelets” value in assay [4] was determined as 110 nM.

B4: engineered AgRP peptide 2bJ (soluble, N-terminal FLAG tag and C-terminal hexahistidine tag) (peptide)
chain: DYKDDDDKGCVRLHESCLGQQVPCCDPAATCYCNKRGDWRSKCYCRHHHHHH
modifications: ends and bridges not checked; cysteine pairing not given here
notes: also called clone 2bJ; αIIbβ3-specific peptide 2bJ
For the molecule B4, the binding result in assay [2], in assay [5] and in assay [6] was “no binding (tested: 1 µM)” each time. In assay [3], binding was characterised by a dissociation constant (Kd) of 59 nM. Further, in assay [4], the “aggregation (IC50; nM), human platelets” value turned out to be 91 nM.

B5: engineered AgRP peptide b3A (soluble, N-terminal FLAG tag and C-terminal hexahistidine tag) (peptide)
chain: DYKDDDDKGCVRLHESCLGQQVPCCDPAATCYCVGRGDVRRKCYCRHHHHHH
modifications: ends and bridges not checked; cysteine pairing not given here
notes: also called clone b3A; β3-specific peptide b3A
Consider B5, for which the binding result in assay [2] and in assay [6] was “no binding (tested: 1 µM)” each time. Further, the Kd is 42 nM in assay [3], 23 nM in assay [7] and around 25 nM in assay [8]. Further, the “aggregation (IC50; nM), human platelets” value in assay [4] is 50 nM.

Values taken from patent US20110136740A1 (Stanford University, published 2011).
